The values below come from patent EP4751739A1, “ANTIBODY-DRUG CONJUGATE TARGETING C-MET AND MEDICAL USE THEREOF” (Jiangsu Hengrui Pharmaceuticals Co., Ltd., priority 2023, dated 2025).

The test system of assay [1] is human gastric cancer MKN-45 nude mouse subcutaneous xenograft tumor model. Nature of the assay: In vivo efficacy, MKN-45 xenograft tumor model. Further details: species or system Balb/c Nude mice. The note with it: 3 mg/kg single i.p. (D0). The procedure: Female Balb/c Nude mice were subcutaneously inoculated with 5 × 10^6 MKN-45 cells to establish a subcutaneous tumor model. […] Each group was given a single (D0) intraperitoneal injection. The body weight and tumor size of the animals were measured twice weekly during the experiment.

Assay [2] deals with human lung cancer EBC-1 cells. The assay is described as follows: Endocytosis by c-Met-positive cells (flow cytometry). The assay is classed as cell-based. The note with it: 20 nM. The procedure: Teli-VcMMAE (namely ABBV-399, in which the toxin is MMAE) and its naked antibody ABT-700 were prepared in-house based on the telisotuzumab vedotin structure disclosed on page 319 of WHO Drug Information, Vol. 30, No. 2, 2016.
The cell density was adjusted to 2 × 10^6 cells/mL using a FACS buffer (prepared with PBS 1×, pH 7.2, and 2% FBS). The suspension was added to a 96-well round-bottom plate at 50 µL/well. Groups were set as follows: endocytosis for 0 h, endocytosis for 0.5 h, endocytosis for 2 h, endocytosis for 4 h, and endocytosis for 24 h. A 40 nM (2×) dilution of an antibody or antibody-drug conjugate was added at 50 µL/well. […] A final concentration of 20 nM was achieved. The plate was incubated at 4 °C for 60 min. After the incubation, the plate was centrifuged at 400 g for 5 min, the supernatant was discarded, and the plate was washed twice with 200 µL of FACS Buffer per well. The cells were resuspended in a culture medium and subjected to 0 h, 0.5 h, 2 h, 4 h, or 24 h of endocytosis in an incubator (37 °C, 5% CO2). After different endocytosis periods, the cells were digested with TrypLE™ Express Enzyme to form a single cell suspension. After 1 wash with 200 µL of FACS buffer, a secondary antibody (Alexa Fluor® 647 AffiniPure Mouse Anti-Human IgG(H+L), 1:500, Jackson, 209-605-008) diluted in FACS buffer was added, and the plate was incubated in a dark place at 4 °C for 30 min. The plate was centrifuged at 400 g for 5 min, the supernatant was discarded, and the plate was washed twice with 200 µL of FACS buffer per well. The cells were resuspended in 50 µL of FACS buffer, and 50 µL of 4% paraformaldehyde was then added for fixation. After thorough mixing, the plate was left to stand at 4 °C in a dark place. After all samples were collected, Alexa Fluor® 647 fluorescence signals were detected using a flow cytometer. Data were analyzed using Flowjo software, and gMFI values were calculated. Endocytosis ratio = (0-h endocytosis gMFI - n-h endocytosis gMFI)/0-h endocytosis gMFI. Table 4. Evaluation of endocytosis performance
(A flow cytometer gives signals particle by particle.)

B1: Teli-VcMMAE: ABBV-399, in which the toxin is MMAE; prepared in-house based on the telisotuzumab vedotin structure (conjugate, chains of the INN, looked up)
VH: QVQLVQSGAEVKKPGASVKVSCKASGYIFTAYTMHWVRQAPGQGLEWMGWIKPNNGLANYAQKFQGRVTMTRDTSISTAYMELSRLRSDDTAVYYCARSEITTEFDYWGQGTLVTVSS
VL: DIVMTQSPDSLAVSLGERATINCKSSESVDSYANSFLHWYQQKPGQPPKLLIYRASTRESGVPDRFSGSGSGTDFTLTISSLQAEDVAVYYCQQSKEDPLTFGGGTKVEIK
modifications: vc-MMAE payload
notes: ABBV-399, in which the toxin is MMAE; prepared in-house based on the telisotuzumab vedotin structure
Turning to B1, the “Mean tumor volume (mm^3, mean ± SEM) D0” value in assay [1] (D0 (baseline at grouping)) turned out to be 117± 3 mm^3. Further, the “Mean tumor volume (mm^3, mean ± SEM) D23” value in assay [1] (D23) is 1354 ± 327 mm^3. The “TGI (%) D23” value in assay [1] (D23) stood at 40.28%. The Endocytosis ratio% in assay [2] (0 h) is given as 0.000%; in assay [2] (0.5 h), 4.361%; in assay [2] (2 h), 31.734%; in assay [2] (24 h), 97.339%.
